In publication PMC8163392, “Interrogating surface versus intracellular transmembrane receptor populations using cell-impermeable SNAP-tag substrates†” (Chemical Science, 2020):

Biological target: the molecule itself
Experiment: single molecule pulldown (SiMPull) with counting of photobleaching steps; surface receptors labelled on live cells with 1 uM SBG-JF549; cells lysed in 1.2% IGEPAL, lysate diluted in 0.1% IGEPAL; receptors captured at low density by biotinylated anti-HA antibody on NeutrAvidin/PEG coverslips; TIRF imaging

B1: HA-SNAP-metabotropic glutamate receptor 2 (receptor, UniProt P31421 19-872, looked up)
chain: EGPAKKVLTLEGDLVLGGLFPVHQKGGPAEECGPVNEHRGIQRLEAMLFALDRINRDPHLLPGVRLGAHILDSCSKDTHALEQALDFVRASLSRGADGSRHICPDGSYATHSDAPTAVTGVIGGSYSDVSIQVANLLRLFQIPQISYASTSAKLSDKSRYDYFARTVPPDFFQAKAMAEILRFFNWTYVSTVASEGDYGETGIEAFELEARARNICVATSEKVGRAMSRAAFEGVVRALLQKPSARVAVLFTRSEDARELLAATQRLNASFTWVASDGWGALESVVAGSERAAEGAITIELASYPISDFASYFQSLDPWNNSRNPWFREFWEERFHCSFRQRDCAAHSLRAVPFEQESKIMFVVNAVYAMAHALHNMHRALCPNTTHLCDAMRPVNGRRLYKDFVLNVKFDAPFRPADTDDEVRFDRFGDGIGRYNIFTYLRAGSGRYRYQKVGYWAEGLTLDTSFIPWASPSAGPLPASRCSEPCLQNEVKSVQPGEVCCWLCIPCQPYEYRLDEFTCADCGLGYWPNASLTGCFELPQEYIRWGDAWAVGPVTIACLGALATLFVLGVFVRHNATPVVKASGRELCYILLGGVFLCYCMTFVFIAKPSTAVCTLRRLGLGTAFSVCYSALLTKTNRIARIFGGAREGAQRPRFISPASQVAICLALISGQLLIVAAWLVVEAPGTGKETAPERREVVTLRCNHRDASMLGSLAYNVLLIALCTLYAFKTRKCPENFNEAKFIGFTMYTTCIIWLAFLPIFYVTSSDYRVQTTTMCVSVSLSGSVVLGCLFAPKLHIILFQPQKNVVSHRAPTSRFGSAAPRASANLGQGSGSQFVPTVCNGREVVDSTTSSL
modifications: JF549 (two-colour experiment: JF549 or JF646) covalently attached to the SNAP-tag
notes: metabotropic glutamate receptor 2 (mGluR2), class C GPCR; The rat receptor is my surmise; also called HA-SNAP-mGluR2; SNAP-mGluR2; source: HEK 293T, transfected, in lysate (1.2% IGEPAL); not shown: SNAP-tag, N-terminal, kept
stoichiometry N: 2
